{
  "source": "patent US20250312473A1",
  "about": "“B7H3 ANTIBODY DRUG CONJUGATES” (BEONE MEDICINES I GMBH, priority 2022, published 2025)",
  "molecules": {"B1": {"name": "BGA-4348: \"1^st version of humanized antibody BGA-4348\", CDR-grafted from BGA-3295, human IgG1 variant format (antibody)", "heavy": "QIQLVQSGAEVKKPGSSVKVSCKASGYTFTNYDINWVRQAPGQGLEWMGWIYPGDGSAYYNEKFKGRATITADKSTSTAYMELSSLRSEDTAVYYCARWGYGGVPFAYWGQGTLVTVSSASTKGPSVFPLAPSSKSTSGGTAALGCLVKDYFPEPVTVSWNSGALTSGVHTFPAVLQSSGLYSLSSVVTVPSSSLGTQTYICNVNHKPSNTKVDKKVEPKSCDKTHTCPPCPAPPAAGPSVFLFPPKPKDTLMISRTPEVTCVVVDVSHEDPEVKFNWYVDGVEVHNAKTKPREEQYNSTYRVVSVLTVLHQDWLNGKEYKCKVSNKALAAPIEKTISKAKGQPREPQVYTLPPSRDELTKNQVSLTCLVKGFYPSDIAVEWESNGQPENNYKTTPPVLDSDGSFFLYSKLTVDKSRWQQGNVFSCSVMHEALHNHYTQKSLSLSPGK", "light": "DIVMTQSPDSLAVSLGERATINCKSSQSLLNDINQKNYLAWYQQKPGQSPKLLVYFASTGVSGVPDRFSGSGSGTDFTLTISSLQAEDVAVYYCQQYYSFPWTFGGGTKVEIK", "modifications": "left off: a dimerising Fc or GST", "notes": "\"1st version of humanized antibody BGA-4348\", CDR-grafted from BGA-3295, human IgG1 variant format"}},
  "molecular_target": "T1, ECD of human 4Ig-B7H3 (Homo sapiens, UniProt Q5ZPR3)",
  "T1 construct": "ECD of human 4Ig-B7H3 (Sinobiological, Cat: 11188-H08H); purchased Sinobiological 11188-H08H",
  "T1 sequence (Q5ZPR3 29-466 limits assumed)": "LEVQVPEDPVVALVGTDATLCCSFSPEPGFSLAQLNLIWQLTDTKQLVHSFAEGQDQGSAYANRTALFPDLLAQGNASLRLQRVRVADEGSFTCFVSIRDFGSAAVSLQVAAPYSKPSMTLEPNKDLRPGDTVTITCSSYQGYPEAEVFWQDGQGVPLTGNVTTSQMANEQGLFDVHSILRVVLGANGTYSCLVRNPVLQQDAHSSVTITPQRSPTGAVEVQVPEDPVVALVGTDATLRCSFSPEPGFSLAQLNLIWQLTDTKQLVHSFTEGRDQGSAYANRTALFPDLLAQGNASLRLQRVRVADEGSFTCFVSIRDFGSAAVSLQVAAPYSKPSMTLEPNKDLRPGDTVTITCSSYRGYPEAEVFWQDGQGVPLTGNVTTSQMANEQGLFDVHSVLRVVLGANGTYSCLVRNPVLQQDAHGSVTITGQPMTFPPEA",
  "experiment": "SPR affinity determination",
  "format": "binding",
  "text": "For affinity determination, antibodies were captured by anti-human Fc surface, and used in an affinity assay based on surface plasmon resonance (SPR) technology. The results of SPR-determined binding profiles of humanized antibodies to ECD of human 4Ig-B7H3 (Sinobiological, Cat: 11188-H08H) were summarized in Table 20.",
  "data": [
    {"molecule": "B1", "values": [
      {"measurement": "koff", "setting": "Test 1", "value": "1.04e-05", "unit": "s⁻¹"},
      {"measurement": "kon", "setting": "Test 1", "value": 31500, "unit": "M⁻¹ s⁻¹"},
      {"measurement": "koff", "setting": "Test 2", "value": 0.000227, "unit": "s⁻¹"},
      {"measurement": "kon", "setting": "Test 2", "value": 369000, "unit": "M⁻¹ s⁻¹"},
      {"measurement": "Kd", "setting": "read-out: dissociation constants", "value": 0.6, "unit": "nM"}
    ]}
  ]
}
